# Literature values as cited in publication PMC5883021.
# Molecular target: F-actin (Oryctolagus cuniculus) (UniProt P68135)
substance,measurement,value
TAGLN2 (from UniProt P37802),Kd,7.39 µM
